# Source: patent US20210134388A1, “Hyperstable Constrained Peptides and Their Design” (University of Washington, priority 2016, published 2021)
# Positions of bridges follow the written chain, without caps; N, C: chain ends. Non-standard residues stand in square brackets, D forms with d. No end group written: not given here.
# Key:
# Type in all cases: physicochemical
# [1] = Thermal denaturation monitored by CD spectroscopy; details: CD wavelength scans, heated to 95° C. and cooled back; 10 mM sodium phosphate buffer (pH 7.0)
# Experimental: (§1) The stability of the designs to thermal and chemical denaturation was assessed by CD spectroscopy. Samples were heated to 95° C. (FIG. 2c), or incubated with increasing concentrations of guanidinium hydrochloride (GdnHCl) (FIG. 2d). The contribution of disulfide bonds to protein folding was assessed by incubating samples with a ˜100-fold molar excess of the reductant tris (2-carboxyethyl) phosphine (TCEP).
# (§2) Circular dichroism (CD) wavelength and temperature scans were recorded on AVIV model 420 or Jasco J-1500 CD spectrometer. For thermal denaturation, peptides samples were prepared at 0.07-0.2 mg/ml final concentration in 10 mM sodium phosphate buffer (pH 7.0). Wavelength scans from 195 nm to 260 nm were recorded at 25° C., 55° C., 95° C., and again after cooling back to 25° C. For chemical denaturation experiments, samples for each peptide were prepared in the presence of 0 M to 6 M GdnHCl concentrations. The concentration of GdnHCl was measured by refractometry. Peptide samples were also prepared in the presence of 2.5 mM TCEP (TCEP was pre-equilibrated to pH 7.0 prior to addition), and incubated for 3 hours. Peptide concentrations were the same across all samples. Wavelength scans from 190 nm to 260 nm were recorded for each sample in 0.1 cm cuvette.
# [2] = Chemical denaturation with guanidinium hydrochloride (GdnHCl) monitored by CD spectroscopy; details: 0 M to 6 M GdnHCl
# Experimental: as §1, §2
# [3] = Reduction of disulfide bonds with TCEP, folding monitored by CD spectroscopy; details: 2.5 mM TCEP (~100-fold molar excess), incubated for 3 hours
# Experimental: as §1, §2
# [4] = NMR secondary 1Hα chemical shifts at a range of temperatures
# Experimental: FIG. 19: Secondary ^1Hα chemical shifts at a range of temperatures for peptide NC_cHLHR_D1 (SEQ ID NO:09). NMR spectra were collected at 25° C. (black bars), 55° C. (blue bars), 75° C. (red bars), and again after cooling to 25° C. (green bars).
# Each non-canonical peptide (1 mg) was dissolved in […] of 10% D20/90% H2O or 100% D2O (˜pH 4). NMR spectra were recorded at 298K on a Bruker Avance-600 spectrometer. Two-dimensional NMR experiments included TOCSY with an […] MLEV-17 spin lock, NOESY (200 ms mixing time), ECOSY, as well as natural-abundance ^13C and ^15N HSQC. Solvent suppression was achieved using excitation sculpting. Spectra were processed using Topspin 2.1 then analyzed using CcpNmr Analysis. Chemical shifts were referenced to internal 2,2-dimethyl-2-silapentane-5-sulfonate (DSS).
Substance,stability to thermal denaturation (CD spectra) [1],stability to chemical denaturation (CD spectra) [2],folding / secondary structure in the presence of the reductant TCEP (CD spectra) [3],"change of secondary 1Hα chemical shifts (secondary structure) on heating ([4]; NMR spectra at 25° C., 55° C., 75° C.)","aggregation or irreversible conformation change on heating (secondary chemical shifts after cooling) ([4]; NMR, again after cooling to 25° C.)"
AEDCERIRKELEKNPNDEIKKKLEKCQA [gHH_44],resistant to thermal denaturation,,,,
CKQRRRYRGSEEECRKYAEELSRRTGCEVEVECET [gEHE_06],thermally and chemically stable,thermally and chemically stable,remained folded in the presence of TCEP,,
"CQTWRrVSPEECRKYKEEYnCVRCTE (CQTWR[dR]VSPEECRKYKEEY[dN]CVRCTE; disulfide 1-21, 12-24) [NC_EHE_D1]",only a small decrease,,,,
CRCHITSSCVRVEGDNGEEYRYCSSDEEDLRRFCKEMQKQC [gEEEH_04],resistant to both thermal and chemical denaturation,resistant to both thermal and chemical denaturation,,,
EERRYKRCGQDEERVRRECKERGERQNCQYQIRKEGNCYVCEIRC [gEHEE_06],thermostable,completely resistant to chemical denaturation,,,
HDPEKRKECEKKYTDPKKREECKRKA (cyclo(HDPEKRKECEKKYTDPKKREECKRKA); disulfide 9-22; not fully specified (some residues)) [NC_cHH_D1],,do not chemically denature,lost secondary structure,,
"NDKCKELKKRYPNCEVRCDpPRYEVHC (NDKCKELKKRYPNCEVRCD[dP]PRYEVHC; disulfide 14-27, 4-18; not fully specified; printed as NDKCKELKKRYPNCEVRCDpPRYEVHC) [NC_HEE_D1]",no loss in secondary structure,does not denature in 6 M GdnHCl,,,
NPEDCRQDPEANKSPEECKKLK (cyclo(NPEDCRQDPEANKSPEECKKLK); disulfide 5-18; not fully specified (some residues)) [NC_cHHH_D1],,some loss of secondary structure in 6M GdnHCl,lost secondary structure,,
NPELQRKCKELdTRpeaerkcreeSD (cyclo(NPELQRKCKEL[dD]TR[dP][dE][dA][dE][dR][dK][dC][dR][dE][dE]SD); disulfide 8-21 (inferred)) [NC_cHLHR_D1],no change was observable on heating to 95 °C,,,no significant loss of secondary structure resulting from heating,not aggregation-prone or otherwise prone to irreversible conformation changes on heating
PCECDVNGETYTVSSSEECERLCRKLGVTNCRVHCG [gEEHE_02],impervious to both thermal and chemical denaturation,impervious to both thermal and chemical denaturation,remained partially folded in the presence of TCEP,,
PCEDLKERLKKLGMSEECRQRLEKMCKEGTSEDAERMARNCES [gHHH_06],partially unfolds upon heating to 95 °C but returns to the folded state upon cooling,,,,
PVTWCVRIpPTVRCTVRp (cyclo(PVTWCVRI[dP]PTVRCTVR[dP]); disulfide 5-14 (inferred)) [NC_cEE_D1],,do not chemically denature,not changed by reduction of the central disulfide bond,,
QCYTFRSECTNKEFTVCRPNPEEVEKEARRTKEEECRK [gEEH_04],less stable than the others to thermal denaturation,,,,
SQETRKKCTEMKKKFKNCEVRCDESNHCVEVRCSDTKYTLC [gHEEE_02],resistant to both thermal and chemical denaturation,resistant to both thermal and chemical denaturation,,,
TCEIRVTDTHCKVHCGTQEYKVPPGRTLKVGNCRFTYHDTTCTVECR [gEEEEEE_02],resistant to both thermal and chemical denaturation,resistant to both thermal and chemical denaturation,,,
